Molecular target: T1, factor Xa (UniProt P00742 41-179; P00742 235-488, limits assumed)
T1 construct: Bought enzyme; The active enzyme has a light and a heavy chain cut from that precursor; also called FXa
Experiment: discontinuous chromogenic substrate assay of FXa inhibition with pentasaccharide, against plasma AT
Experimental: The pentasaccharide is added in excess in the reaction media so that every tested antithrombin is bound to the pentasaccharide. In the absence of pentasaccharide, polybrene (100 μg/ml final) is added in order to neutralize any sulfated glycosaminoglycan that may be present in the reaction media. […] The analysis of the data is performed using the GraphPad Prism version 3 software. Absorbance recording is continuous or discontinuous according to the expected inhibition rate constant (kon).
When the expected kon is lower than 10⁴ M⁻¹.s⁻¹ the discontinuous method is used. […] At the end of this incubation period, 190 μl of kinetic buffer containing 200 μM substrate is added and absorbance at 405 nm is recorded.

T1 sequence (P00742 41-179 limits assumed, form in doubt, chain 1 of 2): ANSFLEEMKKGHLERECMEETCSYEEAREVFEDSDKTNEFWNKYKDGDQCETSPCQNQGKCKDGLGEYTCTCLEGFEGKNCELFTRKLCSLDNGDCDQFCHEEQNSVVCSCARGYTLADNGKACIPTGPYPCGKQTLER
T1 sequence (P00742 235-488 limits assumed, form in doubt, chain 2 of 2): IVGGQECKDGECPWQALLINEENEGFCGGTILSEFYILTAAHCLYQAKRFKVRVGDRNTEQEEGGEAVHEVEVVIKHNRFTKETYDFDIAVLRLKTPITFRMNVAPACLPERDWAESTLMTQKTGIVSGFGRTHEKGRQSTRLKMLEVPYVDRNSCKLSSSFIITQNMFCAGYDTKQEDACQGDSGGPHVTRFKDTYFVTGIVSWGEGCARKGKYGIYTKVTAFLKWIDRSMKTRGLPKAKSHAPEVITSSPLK

B1: AT-N135Q-Pro394 (other)
chain: HGSPVDICTAKPRDIPMNPMCIYRSPEKKATEDEGSEQKIPEATNRRVWELSKANSRFATTFYQHLADSKNDNDNIFLSPLSISTAFAMTKLGACNDTLQQLMEVFKFDTISEKTSDQIHFFFAKLNCRLYRKAQKSSKLVSANRLFGDKSLTFNETYQDISELVYGAKLQPLDFKENAEQSRAAINKWVSNKTEGRITDVIPSEAINELTVLVLVNTIYFKGLWKSKFSPENTRKELFYKADGESCSASMMYQEGKFRYRRVAEGTQVLELPFKGDDITMVLILPKPEKSLAKVEKELTPEVLQEWLDELEEMMLVVHMPRFRIEDGFSLKEQLQDMGLVDLFSPEKSKLPGIVAEGRDDLYVSDAFHKAFLEVNEEGSEAAASTAVVIAGRPSLNPNRVTFKANRPFLVFIREVPLNTIIFMGRVANPCVK
- fold lower kon than plasma AT: ≥ 7600 fold

Reference: patent US20120088715A1 (UNIVERSITE PARIS SUD XI, published 2012)
